# Experimental data as given in article PMC11119474.
# Molecular target: HFE-WT-flagM2 (homeostatic iron regulator protein) with β2M-flagM2 (UniProt Q30201)
# Chain of UniProt Q30201 (Q30201 23-348, chain 1 of 2): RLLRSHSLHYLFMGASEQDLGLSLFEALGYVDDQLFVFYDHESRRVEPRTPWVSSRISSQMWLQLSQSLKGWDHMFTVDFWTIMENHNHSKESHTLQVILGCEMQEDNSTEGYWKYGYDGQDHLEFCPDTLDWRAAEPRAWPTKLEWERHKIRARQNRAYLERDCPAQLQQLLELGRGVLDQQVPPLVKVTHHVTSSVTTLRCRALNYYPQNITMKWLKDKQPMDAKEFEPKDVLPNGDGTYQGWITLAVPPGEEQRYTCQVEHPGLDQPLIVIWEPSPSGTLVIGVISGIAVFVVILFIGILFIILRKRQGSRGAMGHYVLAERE
# Chain of UniProt Q30201 (chain, as listed by the source, chain 2 of 2): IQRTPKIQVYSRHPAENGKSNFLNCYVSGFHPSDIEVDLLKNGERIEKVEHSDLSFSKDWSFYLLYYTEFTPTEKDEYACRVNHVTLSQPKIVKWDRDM
substance,measurement,value
"PCSK9-WT-V5 (proprotein convertase subtilisin/kexin type 9, wild type) (from UniProt Q8NBP7 31-152; Q8NBP7 153-692) (natural protein)",HFE level by Western blot in HepG2 PCSK9 KO cells expressing HFE/β2M after 18 h with conditioned medium containing WT PCSK9 (Figure 2A),60 % reduction
